B1: soluble form of human PC7 (amino acids 1-663) (protein)
chain: LAGTGGPDGQGTGGPSWAVHLESLEGDGEEETLEQQADALAQAAGLVNAGRIGELQGHYLFVQPAGHRPALEVEAIRQQVEAVLAGHEAVRWHSEQRLLRRAKRSVHFNDPKYPQQWHLNNRRSPGRDINVTGVWERNVTGRGVTVVVVDDGVEHTIQDIAPNYSPEGSYDLNSNDPDPMPHPDVENGNHHGTRCAGEIAAVPNNSFCAVGVAYGSRIAGIRVLDGPLTDSMEAVAFNKHYQINDIYSCSWGPDDDGKTVDGPHQLGKAALQHGVIAGRQGFGSIFVVASGNGGQHNDNCNYDGYANSIYTVTIGAVDEEGRMPFYAEECASMLAVTFSGGDKMLRSIVTTDWDLQKGTGCTEGHTGTSAAAPLAAGMIALMLQVRPCLTWRDVQHIIVFTATRYEDRRAEWVTNEAGFSHSHQHGFGLLNAWRLVNAAKIWTSVPYLASYVSPVLKENKAIPQSPRSLEVLWNVSRMDLEMSGLKTLEHVAVTVSITHPRRGSLELKLFCPSGMMSLIGAPRSMDSDPNGFNDWTFSTVRCWGERARGTYRLVIRDVGDESFQVGILRQWQLTLYGSVWSAVDIRDRQRLLESAMSGKYLHDDFALPCPPGLKIPEEDGYTITPN
B2: soluble form of yeast Kex2 (amino acids 1-675) (protein)
chain: LVSSQQIPLKDHTSRQYFAVESNETLSRLEEMHPNWKYEHDVRGLPNHYVFSKELLKLGKRSSLEELQGDNNDHILSVHDLFPRNDLFKRLPVPAPPMDSSLLPVKEAEDKLSINDPLFERQWHLVNPSFPGSDINVLDLWYNNITGAGVVAAIVDDGLDYENEDLKDNFCAEGSWDFNDNTNLPKPRLSDDYHGTRCAGEIAAKKGNNFCGVGVGYNAKISGIRILSGDITTEDEAASLIYGLDVNDIYSCSWGPADDGRHLQGPSDLVKKALVKGVTEGRDSKGAIYVFASGNGGTRGDNCNYDGYTNSIYSITIGAIDHKDLHPPYSEGCSAVMAVTYSSGSGEYIHSSDINGRCSNSHGGTSAAAPLAAGVYTLLLEANPNLTWRDVQYLSILSAVGLEKNADGDWRDSAMGKKYSHRYGFGKIDAHKLIEMSKTWENVNAQTWFYLPTLYVSQSTNSTEETLESVITISEKSLQDANFKRIEHVTVTVDIDTEIRGTTTVDLISPAGIISNLGVVRPRDVSSEGFKDWTFMSVAHWGENGVGDWKIKVKTTENGHRIDFHSWRLKLFGESIDSSKTETFVFGNDKEEVEPAATESTVSQYSASSTSISISATSTSSISIGVETSAIPQTTTASTDPDSDPNTPKKLSSPRQ
B3: human PC5 (proprotein convertase subtilisin/kexin type 5), expressed from pSYN-PC5-003 (protein)
chain: RVYTNHWAVKIAGGFPEANRIASKYGFINIGQIGALKDYYHFYHSRTIKRSVISSRGTHSFISMEPKVEWIQQQVVKKRTKRDYDFSRAQSTYFNDPKWPSMWYMHCSDNTHPCQSDMNIEGAWKRGYTGKNIVVTILDDGIERTHPDLMQNYDALASCDVNGNDLDPMPRYDASNENKHGTRCAGEVAAAANNSHCTVGIAFNAKIGGVRMLDGDVTDMVEAKSVSFNPQHVHIYSASWGPDDDGKTVDGPAPLTRQAFENGVRMGRRGLGSVFVWASGNGGRSKDHCSCDGYTNSIYTISISSTAESGKKPWYLEECSSTLATTYSSGESYDKKIITTDLRQRCTDNHTGTSASAPMAAGIIALALEANPFLTWRDVQHVIVRTSRAGHLNANDWKTNAAGFKVSHLYGFGLMDAEAMVMEAEKWTTVPRQHVCVESTDRQIKTIRPNSAVRSIYKASGCSDNPNRHVNYLEHVVVRITITHPRRGDLAIYLTSPSGTRSQLLANRLFDHSMEGFKNWEFMTIHCWGERAAGDWVLEVYDTPSQLRNFKTPGKLKEWSLVLYGTSVQPYSPTNEFPKVERFRYSRVEDPTDDYGTEDYAGPCDPECSEVGCDGPGPDHCNDCLHYYYKLKNNTRICVSSCPPGHYHADKKRCRKCAPNCESCFGSHGDQCMSCKYGYFLNEETNSCVTHCPDGSYQDTKKNLCRKCSENCKTCTEFHNCTECRDGLSLQGSRCSVSCEDGRYFNGQDCQPCHRFCATCAGAGADGCINCTEGYFMEDGRCVQSCSISYYFDHSSENGYKSCKKCDISCLTCNGPGFKNCTSCPSGYLLDLGMCQMGAICKDATEESWAEGGFCMLVKKNNLCQRKVLQQLCCKTCTFQG

The proteins below were run against rFVIIIBDD-Fc-Fc (B-domain deleted Factor VIII-Fc fused to a second Fc through a (GGGGS)4 linker; expressed from pSYN-FVIII-041).
rFVIIIBDD-Fc-Fc (B-domain deleted Factor VIII-Fc fused to a second Fc through a (GGGGS)4 linker; expressed from pSYN-FVIII-041), sequence (chain, as listed by the source, stated change not applied): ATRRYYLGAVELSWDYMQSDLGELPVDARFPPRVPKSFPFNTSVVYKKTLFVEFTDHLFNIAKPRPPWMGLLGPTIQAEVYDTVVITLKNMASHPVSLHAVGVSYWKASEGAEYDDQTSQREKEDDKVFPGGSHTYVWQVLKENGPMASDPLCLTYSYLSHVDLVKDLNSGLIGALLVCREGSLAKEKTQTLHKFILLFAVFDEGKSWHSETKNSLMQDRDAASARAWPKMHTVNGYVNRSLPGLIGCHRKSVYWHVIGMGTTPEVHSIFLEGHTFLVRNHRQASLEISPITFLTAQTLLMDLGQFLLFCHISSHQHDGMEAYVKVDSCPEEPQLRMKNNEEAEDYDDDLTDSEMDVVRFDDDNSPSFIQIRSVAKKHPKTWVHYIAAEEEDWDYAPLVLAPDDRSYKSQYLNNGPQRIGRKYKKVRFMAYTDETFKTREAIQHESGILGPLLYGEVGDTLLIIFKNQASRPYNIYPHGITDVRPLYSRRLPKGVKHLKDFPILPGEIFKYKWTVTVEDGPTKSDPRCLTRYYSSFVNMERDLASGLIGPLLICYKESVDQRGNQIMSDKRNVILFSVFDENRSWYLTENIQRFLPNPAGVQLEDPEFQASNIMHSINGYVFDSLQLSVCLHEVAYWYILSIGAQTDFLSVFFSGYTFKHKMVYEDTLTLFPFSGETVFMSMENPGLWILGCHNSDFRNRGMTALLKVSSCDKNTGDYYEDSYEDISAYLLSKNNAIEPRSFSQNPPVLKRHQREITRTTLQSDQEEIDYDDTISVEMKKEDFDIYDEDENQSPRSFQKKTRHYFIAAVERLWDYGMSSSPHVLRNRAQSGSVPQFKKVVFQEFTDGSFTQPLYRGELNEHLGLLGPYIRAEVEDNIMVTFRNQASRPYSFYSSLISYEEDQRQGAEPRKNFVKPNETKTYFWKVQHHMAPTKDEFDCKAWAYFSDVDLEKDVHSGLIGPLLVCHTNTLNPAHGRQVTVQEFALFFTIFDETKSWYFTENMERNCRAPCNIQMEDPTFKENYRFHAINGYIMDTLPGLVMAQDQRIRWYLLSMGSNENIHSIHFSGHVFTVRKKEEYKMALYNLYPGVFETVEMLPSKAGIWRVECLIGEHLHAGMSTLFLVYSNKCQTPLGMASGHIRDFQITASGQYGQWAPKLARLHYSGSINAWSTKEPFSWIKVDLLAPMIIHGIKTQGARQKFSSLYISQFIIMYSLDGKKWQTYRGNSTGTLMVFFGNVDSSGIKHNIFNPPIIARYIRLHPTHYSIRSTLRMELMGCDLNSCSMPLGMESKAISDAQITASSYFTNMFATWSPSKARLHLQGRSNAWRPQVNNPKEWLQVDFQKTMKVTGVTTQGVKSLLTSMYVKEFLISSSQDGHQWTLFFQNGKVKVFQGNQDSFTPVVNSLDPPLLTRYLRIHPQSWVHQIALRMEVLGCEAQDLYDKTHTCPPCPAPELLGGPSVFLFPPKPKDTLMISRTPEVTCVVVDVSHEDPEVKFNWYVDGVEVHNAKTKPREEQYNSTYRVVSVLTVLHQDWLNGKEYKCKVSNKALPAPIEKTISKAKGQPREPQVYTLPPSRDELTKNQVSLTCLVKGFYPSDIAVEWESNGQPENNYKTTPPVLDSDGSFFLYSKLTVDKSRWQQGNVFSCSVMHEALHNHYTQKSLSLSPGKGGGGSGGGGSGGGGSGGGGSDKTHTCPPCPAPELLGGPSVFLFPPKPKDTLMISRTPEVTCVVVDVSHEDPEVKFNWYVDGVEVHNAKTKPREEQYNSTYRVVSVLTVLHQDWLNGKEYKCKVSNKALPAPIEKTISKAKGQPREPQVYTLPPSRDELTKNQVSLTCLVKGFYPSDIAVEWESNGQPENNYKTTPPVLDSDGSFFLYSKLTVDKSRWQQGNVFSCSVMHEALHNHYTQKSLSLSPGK

Protein | nonprocessed FVIIIFc on SDS-PAGE (SYPRO Ruby and Coomassie staining)
B1 | Kex2, PC7, PACE, and PC5 decrease nonprocessed Factor VIII
B2 | Kex2, PC7, PACE, and PC5 decrease nonprocessed Factor VIII
B3 | Kex2, PC7, PACE, and PC5 decrease nonprocessed Factor VIII
